First the molecules themselves.
B1: Retinol dehydrogenase 12 (Homo sapiens), Q96NR8 (parent)
chain: MLVTLGLLTSFFSFLYMVAPSIRKFFAGGVCRTNVQLPGKVVVITGANTGIGKETARELASRGARVYIACRDVLKGESAASEIRVDTKNSQVLVRKLDLSDTKSIRAFAEGFLAEEKQLHILINNAGVMMCPYSKTADGFETHLGVNHLGHFLLTYLLLERLKVSAPARVVNVSSVAHHIGKIPFHDLQSEKRYSRGFAYCHSKLANVLFTRELAKRLQGTGVTTYAVHPGVVRSELVRHSSLLCLLWRLFSPFVKTAREGAQTSLHCALAEGLEPLSGKYFSDCKRTWVSPRARNNKTAERLWNVSCELLGIRWE

Variants of B1 are the subject of one experiment. The settings on record: with ubc_human UBC.
Take T49M: the “effect of a mutation on the interaction” value is reported as “increasing interaction”.

A further experiment covers variants of B1. The settings on record: with ubc_human UBC. The source holds these as a separate data set.
I51N: the “effect of a mutation on the interaction” value was “increasing interaction”.

Values taken from IntAct's records for PubMed 20006610.
